Test results as given in IntAct's records for PubMed 19838187.

Legend:
[1] = molecular target: tnr6b_mouse Tnrc6b (UniProt Q8BKI2)
[2] = molecular target: tnr6c_human TNRC6C (UniProt Q9HCJ0)
[3] = molecular target: tnr6b_human TNRC6B (UniProt Q9UPQ9)

Measured: effect of a mutation on the interaction

Protein argonaute-2 (Homo sapiens), Q9UKV8 F470V;F505V, sequence (Q9UKV8 whole entry F470V/F505V): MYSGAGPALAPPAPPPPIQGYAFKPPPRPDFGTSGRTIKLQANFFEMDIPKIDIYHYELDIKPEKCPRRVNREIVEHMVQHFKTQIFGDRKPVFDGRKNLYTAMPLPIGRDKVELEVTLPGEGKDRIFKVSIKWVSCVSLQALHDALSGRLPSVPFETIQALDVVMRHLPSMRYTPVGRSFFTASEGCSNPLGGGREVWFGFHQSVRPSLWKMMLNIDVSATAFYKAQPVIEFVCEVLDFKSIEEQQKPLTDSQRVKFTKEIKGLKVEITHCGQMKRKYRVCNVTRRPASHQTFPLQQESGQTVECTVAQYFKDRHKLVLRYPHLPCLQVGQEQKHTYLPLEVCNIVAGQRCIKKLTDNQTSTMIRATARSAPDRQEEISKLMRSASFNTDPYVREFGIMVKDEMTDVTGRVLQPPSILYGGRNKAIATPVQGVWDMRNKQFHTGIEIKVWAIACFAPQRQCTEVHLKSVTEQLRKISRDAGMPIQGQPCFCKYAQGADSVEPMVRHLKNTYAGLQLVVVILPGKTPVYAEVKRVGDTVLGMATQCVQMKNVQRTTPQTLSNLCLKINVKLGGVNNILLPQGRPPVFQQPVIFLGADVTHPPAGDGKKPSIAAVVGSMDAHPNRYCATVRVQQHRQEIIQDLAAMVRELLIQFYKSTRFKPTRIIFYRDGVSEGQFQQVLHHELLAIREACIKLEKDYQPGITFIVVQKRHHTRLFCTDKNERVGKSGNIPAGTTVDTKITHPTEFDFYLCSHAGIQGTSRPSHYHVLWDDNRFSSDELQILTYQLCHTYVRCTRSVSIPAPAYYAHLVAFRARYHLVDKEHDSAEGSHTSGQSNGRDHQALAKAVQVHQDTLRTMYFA
tnr6b_mouse Tnrc6b, sequence (Q8BKI2 whole entry): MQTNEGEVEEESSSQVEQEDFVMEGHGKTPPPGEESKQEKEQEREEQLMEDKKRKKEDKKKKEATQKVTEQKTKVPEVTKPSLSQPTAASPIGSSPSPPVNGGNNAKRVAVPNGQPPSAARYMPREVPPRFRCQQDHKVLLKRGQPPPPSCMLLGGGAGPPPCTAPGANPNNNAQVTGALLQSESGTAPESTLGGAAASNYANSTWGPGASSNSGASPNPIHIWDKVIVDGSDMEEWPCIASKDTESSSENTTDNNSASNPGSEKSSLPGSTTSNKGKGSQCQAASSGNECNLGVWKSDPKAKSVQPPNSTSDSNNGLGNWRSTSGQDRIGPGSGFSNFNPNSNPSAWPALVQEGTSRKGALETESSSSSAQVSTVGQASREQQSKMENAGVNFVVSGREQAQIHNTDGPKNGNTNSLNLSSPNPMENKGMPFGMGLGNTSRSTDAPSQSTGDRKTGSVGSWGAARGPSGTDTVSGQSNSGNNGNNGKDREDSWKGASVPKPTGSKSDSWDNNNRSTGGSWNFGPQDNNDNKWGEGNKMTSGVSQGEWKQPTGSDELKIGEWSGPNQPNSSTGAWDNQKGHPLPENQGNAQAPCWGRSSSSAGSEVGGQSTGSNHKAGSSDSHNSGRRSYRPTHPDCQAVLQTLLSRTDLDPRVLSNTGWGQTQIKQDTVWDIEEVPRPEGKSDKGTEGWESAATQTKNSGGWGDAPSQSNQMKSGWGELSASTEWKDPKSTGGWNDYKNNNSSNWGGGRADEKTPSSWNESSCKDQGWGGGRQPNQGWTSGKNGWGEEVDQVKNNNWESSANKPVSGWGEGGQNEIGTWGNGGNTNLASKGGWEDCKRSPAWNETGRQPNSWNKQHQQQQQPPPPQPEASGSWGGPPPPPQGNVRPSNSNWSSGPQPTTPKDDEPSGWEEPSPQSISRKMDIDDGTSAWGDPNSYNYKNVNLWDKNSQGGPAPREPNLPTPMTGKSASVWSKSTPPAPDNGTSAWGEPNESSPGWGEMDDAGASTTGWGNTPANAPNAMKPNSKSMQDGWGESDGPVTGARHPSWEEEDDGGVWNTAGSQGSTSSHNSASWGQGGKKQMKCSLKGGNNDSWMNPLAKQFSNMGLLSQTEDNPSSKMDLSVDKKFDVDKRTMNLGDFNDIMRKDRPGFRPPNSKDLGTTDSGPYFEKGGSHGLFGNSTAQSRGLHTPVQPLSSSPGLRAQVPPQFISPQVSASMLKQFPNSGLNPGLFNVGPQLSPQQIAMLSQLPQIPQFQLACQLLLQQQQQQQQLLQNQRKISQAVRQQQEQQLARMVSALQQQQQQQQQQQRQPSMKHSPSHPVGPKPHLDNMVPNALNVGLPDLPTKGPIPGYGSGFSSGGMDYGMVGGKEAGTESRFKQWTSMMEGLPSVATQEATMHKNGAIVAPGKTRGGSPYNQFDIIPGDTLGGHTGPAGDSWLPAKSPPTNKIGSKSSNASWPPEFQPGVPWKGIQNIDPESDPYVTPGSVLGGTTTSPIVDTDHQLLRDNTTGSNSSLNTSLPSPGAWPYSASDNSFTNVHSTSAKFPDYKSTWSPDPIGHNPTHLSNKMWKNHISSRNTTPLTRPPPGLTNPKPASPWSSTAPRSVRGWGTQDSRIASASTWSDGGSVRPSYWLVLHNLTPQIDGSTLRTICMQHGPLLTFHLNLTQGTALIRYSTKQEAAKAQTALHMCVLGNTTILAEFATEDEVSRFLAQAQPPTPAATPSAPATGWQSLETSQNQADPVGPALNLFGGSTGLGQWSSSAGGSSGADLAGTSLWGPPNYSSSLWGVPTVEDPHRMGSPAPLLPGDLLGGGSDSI
tnr6c_human TNRC6C, sequence (Q9HCJ0 whole entry): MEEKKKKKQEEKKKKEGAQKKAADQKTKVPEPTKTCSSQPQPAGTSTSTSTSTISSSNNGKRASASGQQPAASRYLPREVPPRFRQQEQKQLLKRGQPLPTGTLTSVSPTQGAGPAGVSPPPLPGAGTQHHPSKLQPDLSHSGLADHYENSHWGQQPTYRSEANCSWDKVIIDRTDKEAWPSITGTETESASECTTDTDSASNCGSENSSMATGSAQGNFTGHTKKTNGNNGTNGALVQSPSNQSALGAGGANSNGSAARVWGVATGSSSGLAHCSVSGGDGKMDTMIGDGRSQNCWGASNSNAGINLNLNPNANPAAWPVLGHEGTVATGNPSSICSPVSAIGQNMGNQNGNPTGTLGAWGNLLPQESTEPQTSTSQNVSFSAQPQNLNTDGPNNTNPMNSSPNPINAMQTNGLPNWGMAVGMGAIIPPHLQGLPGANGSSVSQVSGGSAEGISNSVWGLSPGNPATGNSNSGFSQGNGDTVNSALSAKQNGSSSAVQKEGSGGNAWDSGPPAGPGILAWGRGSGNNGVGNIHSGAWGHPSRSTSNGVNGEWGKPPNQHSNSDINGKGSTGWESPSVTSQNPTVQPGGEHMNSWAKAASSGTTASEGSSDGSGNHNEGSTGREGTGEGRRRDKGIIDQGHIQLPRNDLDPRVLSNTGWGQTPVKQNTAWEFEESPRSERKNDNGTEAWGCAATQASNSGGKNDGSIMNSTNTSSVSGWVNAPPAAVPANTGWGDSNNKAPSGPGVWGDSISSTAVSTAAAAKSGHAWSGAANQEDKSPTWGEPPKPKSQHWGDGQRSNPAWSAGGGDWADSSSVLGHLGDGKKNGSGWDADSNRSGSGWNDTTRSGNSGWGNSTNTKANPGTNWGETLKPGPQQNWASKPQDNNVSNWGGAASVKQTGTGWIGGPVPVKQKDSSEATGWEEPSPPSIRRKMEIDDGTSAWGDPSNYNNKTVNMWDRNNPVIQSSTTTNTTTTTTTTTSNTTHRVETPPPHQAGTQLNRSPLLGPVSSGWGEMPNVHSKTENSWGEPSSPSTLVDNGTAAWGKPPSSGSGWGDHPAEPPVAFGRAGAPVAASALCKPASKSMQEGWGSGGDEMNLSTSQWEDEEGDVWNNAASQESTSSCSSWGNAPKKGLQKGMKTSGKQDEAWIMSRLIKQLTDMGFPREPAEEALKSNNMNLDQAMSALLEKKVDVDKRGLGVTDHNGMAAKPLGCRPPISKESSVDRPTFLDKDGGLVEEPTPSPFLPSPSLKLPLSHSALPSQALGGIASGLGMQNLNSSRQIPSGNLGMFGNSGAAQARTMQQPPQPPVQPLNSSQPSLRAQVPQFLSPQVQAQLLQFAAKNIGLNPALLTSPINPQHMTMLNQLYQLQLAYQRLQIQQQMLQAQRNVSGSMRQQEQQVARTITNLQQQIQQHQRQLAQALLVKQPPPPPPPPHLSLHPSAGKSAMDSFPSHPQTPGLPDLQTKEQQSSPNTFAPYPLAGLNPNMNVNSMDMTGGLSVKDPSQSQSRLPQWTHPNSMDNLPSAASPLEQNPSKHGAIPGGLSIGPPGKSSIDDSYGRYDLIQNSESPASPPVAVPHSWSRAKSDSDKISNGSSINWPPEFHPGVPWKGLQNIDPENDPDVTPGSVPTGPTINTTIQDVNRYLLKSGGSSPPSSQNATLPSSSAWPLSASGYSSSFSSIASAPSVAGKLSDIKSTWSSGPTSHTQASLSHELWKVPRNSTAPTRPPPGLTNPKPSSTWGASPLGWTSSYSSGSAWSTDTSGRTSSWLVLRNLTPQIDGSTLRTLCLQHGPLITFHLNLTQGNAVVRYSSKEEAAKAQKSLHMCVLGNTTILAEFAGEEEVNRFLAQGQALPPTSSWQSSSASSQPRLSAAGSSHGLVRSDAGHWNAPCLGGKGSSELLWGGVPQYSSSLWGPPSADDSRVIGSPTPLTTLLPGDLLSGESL

Protein argonaute-2 (Homo sapiens), Q9UKV8 F470V;F505V
disrupting interaction: all assays above
